Experimental data from paper PMC3691886.
Blank lines part the entries; values can stand above or below the substance they belong to.

Assays:
[1] = target: bovine α-chymotrypsin (bovine)
[2] = target: bovine α-chymotrypsin (bovine); assay: enzyme inhibition progress curves; pseudo-first-order conditions, 4 h at 25°C, 5-600 nM inhibitor, 200 μM substrate, 0.5 nM bovine α-chymotrypsin
[3] = target: recombinant α1-antitrypsin, M allele with the C232S mutation (AT_(C232S)) (UniProt P01009); assay: FRET or BRET; heat-induced polymerization at 60°C; 0.1 mg/ml protein in 10 mM Na2HPO4/NaH2PO4, 0.1 M NaCl, 0.1% PEG8K, pH 7.4; 2-8 μM ATTO-550-Ni-NTA and ATTO-647N-Ni-NTA on the His tag; apparent rate, corrected to zero dye; monomer to polymer
[4] = target: recombinant α1-antitrypsin, M allele with the C232S mutation (AT_(C232S)) (UniProt P01009); assay: FRET or BRET; heat-induced polymerization at 50°C; 0.1 mg/ml protein in 10 mM Na2HPO4/NaH2PO4, 0.1 M NaCl, 0.1% PEG8K, pH 7.4; 2-8 μM ATTO-550-Ni-NTA and ATTO-647N-Ni-NTA on the His tag; apparent rate, corrected to zero dye; monomer to polymer
[5] = target: recombinant α1-antitrypsin, M allele with the C232S mutation (AT_(C232S)) (UniProt P01009); assay: FRET or BRET; heat-induced polymerization at 55°C; 0.1 mg/ml protein in 10 mM Na2HPO4/NaH2PO4, 0.1 M NaCl, 0.1% PEG8K, pH 7.4; 2-8 μM ATTO-550-Ni-NTA and ATTO-647N-Ni-NTA on the His tag; apparent rate, corrected to zero dye; monomer to polymer
[6] = target: α1-antitrypsin reactive loop mutant P2P1′ (P357D, S359D) on the C232S background (UniProt P01009); assay: FRET or BRET; heat-induced polymerization at 60°C; 0.1 mg/ml protein in 10 mM Na2HPO4/NaH2PO4, 0.1 M NaCl, 0.1% PEG8K, pH 7.4; 2-8 μM ATTO-550-Ni-NTA and ATTO-647N-Ni-NTA on the His tag; apparent rate, corrected to zero dye; monomer to polymer
[7] = target: α1-antitrypsin reactive loop mutant P2P1′ (P357D, S359D) on the C232S background (UniProt P01009); assay: FRET or BRET; heat-induced polymerization at 50°C; 0.1 mg/ml protein in 10 mM Na2HPO4/NaH2PO4, 0.1 M NaCl, 0.1% PEG8K, pH 7.4; 2-8 μM ATTO-550-Ni-NTA and ATTO-647N-Ni-NTA on the His tag; apparent rate, corrected to zero dye; monomer to polymer
[8] = target: α1-antitrypsin reactive loop mutant P2P1′ (P357D, S359D) on the C232S background (UniProt P01009); assay: FRET or BRET; heat-induced polymerization at 55°C; 0.1 mg/ml protein in 10 mM Na2HPO4/NaH2PO4, 0.1 M NaCl, 0.1% PEG8K, pH 7.4; 2-8 μM ATTO-550-Ni-NTA and ATTO-647N-Ni-NTA on the His tag; apparent rate, corrected to zero dye; monomer to polymer
[9] = target: α1-antitrypsin reactive loop mutant P4 (A355D) on the C232S background (UniProt P01009); assay: FRET or BRET; heat-induced polymerization at 60°C; 0.1 mg/ml protein in 10 mM Na2HPO4/NaH2PO4, 0.1 M NaCl, 0.1% PEG8K, pH 7.4; 2-8 μM ATTO-550-Ni-NTA and ATTO-647N-Ni-NTA on the His tag; apparent rate, corrected to zero dye; monomer to polymer
[10] = target: α1-antitrypsin reactive loop mutant P4 (A355D) on the C232S background (UniProt P01009); assay: FRET or BRET; heat-induced polymerization at 50°C; 0.1 mg/ml protein in 10 mM Na2HPO4/NaH2PO4, 0.1 M NaCl, 0.1% PEG8K, pH 7.4; 2-8 μM ATTO-550-Ni-NTA and ATTO-647N-Ni-NTA on the His tag; apparent rate, corrected to zero dye; monomer to polymer
[11] = target: α1-antitrypsin reactive loop mutant P4 (A355D) on the C232S background (UniProt P01009); assay: FRET or BRET; heat-induced polymerization at 55°C; 0.1 mg/ml protein in 10 mM Na2HPO4/NaH2PO4, 0.1 M NaCl, 0.1% PEG8K, pH 7.4; 2-8 μM ATTO-550-Ni-NTA and ATTO-647N-Ni-NTA on the His tag; apparent rate, corrected to zero dye; monomer to polymer
[12] = target: α1-antitrypsin reactive loop mutant P6 (L353D) on the C232S background (UniProt P01009); assay: FRET or BRET; heat-induced polymerization at 60°C; 0.1 mg/ml protein in 10 mM Na2HPO4/NaH2PO4, 0.1 M NaCl, 0.1% PEG8K, pH 7.4; 2-8 μM ATTO-550-Ni-NTA and ATTO-647N-Ni-NTA on the His tag; apparent rate, corrected to zero dye; monomer to polymer
[13] = target: α1-antitrypsin reactive loop mutant P6 (L353D) on the C232S background (UniProt P01009); assay: FRET or BRET; heat-induced polymerization at 50°C; 0.1 mg/ml protein in 10 mM Na2HPO4/NaH2PO4, 0.1 M NaCl, 0.1% PEG8K, pH 7.4; 2-8 μM ATTO-550-Ni-NTA and ATTO-647N-Ni-NTA on the His tag; apparent rate, corrected to zero dye; monomer to polymer
[14] = target: α1-antitrypsin reactive loop mutant P6 (L353D) on the C232S background (UniProt P01009); assay: FRET or BRET; heat-induced polymerization at 55°C; 0.1 mg/ml protein in 10 mM Na2HPO4/NaH2PO4, 0.1 M NaCl, 0.1% PEG8K, pH 7.4; 2-8 μM ATTO-550-Ni-NTA and ATTO-647N-Ni-NTA on the His tag; apparent rate, corrected to zero dye; monomer to polymer
[15] = target: α1-antitrypsin reactive loop mutant P6P4 (L353D, A355D) on the C232S background (UniProt P01009); assay: FRET or BRET; heat-induced polymerization at 60°C; 0.1 mg/ml protein in 10 mM Na2HPO4/NaH2PO4, 0.1 M NaCl, 0.1% PEG8K, pH 7.4; 2-8 μM ATTO-550-Ni-NTA and ATTO-647N-Ni-NTA on the His tag; apparent rate, corrected to zero dye; monomer to polymer
[16] = target: α1-antitrypsin reactive loop mutant P6P4 (L353D, A355D) on the C232S background (UniProt P01009); assay: FRET or BRET; heat-induced polymerization at 50°C; 0.1 mg/ml protein in 10 mM Na2HPO4/NaH2PO4, 0.1 M NaCl, 0.1% PEG8K, pH 7.4; 2-8 μM ATTO-550-Ni-NTA and ATTO-647N-Ni-NTA on the His tag; apparent rate, corrected to zero dye; monomer to polymer
[17] = target: α1-antitrypsin reactive loop mutant P6P4 (L353D, A355D) on the C232S background (UniProt P01009); assay: FRET or BRET; heat-induced polymerization at 55°C; 0.1 mg/ml protein in 10 mM Na2HPO4/NaH2PO4, 0.1 M NaCl, 0.1% PEG8K, pH 7.4; 2-8 μM ATTO-550-Ni-NTA and ATTO-647N-Ni-NTA on the His tag; apparent rate, corrected to zero dye; monomer to polymer
[18] = target: α1-antitrypsin reactive loop mutant P10P8 (G349D, M351D) on the C232S background (UniProt P01009); assay: FRET or BRET; heat-induced polymerization at 60°C; 0.1 mg/ml protein in 10 mM Na2HPO4/NaH2PO4, 0.1 M NaCl, 0.1% PEG8K, pH 7.4; 2-8 μM ATTO-550-Ni-NTA and ATTO-647N-Ni-NTA on the His tag; apparent rate, corrected to zero dye; monomer to polymer
[19] = target: α1-antitrypsin reactive loop mutant P10P8 (G349D, M351D) on the C232S background (UniProt P01009); assay: FRET or BRET; heat-induced polymerization at 50°C; 0.1 mg/ml protein in 10 mM Na2HPO4/NaH2PO4, 0.1 M NaCl, 0.1% PEG8K, pH 7.4; 2-8 μM ATTO-550-Ni-NTA and ATTO-647N-Ni-NTA on the His tag; apparent rate, corrected to zero dye; monomer to polymer
[20] = target: α1-antitrypsin reactive loop mutant P10P8 (G349D, M351D) on the C232S background (UniProt P01009); assay: FRET or BRET; heat-induced polymerization at 55°C; 0.1 mg/ml protein in 10 mM Na2HPO4/NaH2PO4, 0.1 M NaCl, 0.1% PEG8K, pH 7.4; 2-8 μM ATTO-550-Ni-NTA and ATTO-647N-Ni-NTA on the His tag; apparent rate, corrected to zero dye; monomer to polymer
[21] = target: α1-antitrypsin reactive loop mutant P14P12 (T345D, A347D) on the C232S background (UniProt P01009); assay: FRET or BRET; heat-induced polymerization at 60°C; 0.1 mg/ml protein in 10 mM Na2HPO4/NaH2PO4, 0.1 M NaCl, 0.1% PEG8K, pH 7.4; 2-8 μM ATTO-550-Ni-NTA and ATTO-647N-Ni-NTA on the His tag; apparent rate, corrected to zero dye; monomer to polymer
[22] = target: α1-antitrypsin reactive loop mutant P14P12 (T345D, A347D) on the C232S background (UniProt P01009); assay: FRET or BRET; heat-induced polymerization at 50°C; 0.1 mg/ml protein in 10 mM Na2HPO4/NaH2PO4, 0.1 M NaCl, 0.1% PEG8K, pH 7.4; 2-8 μM ATTO-550-Ni-NTA and ATTO-647N-Ni-NTA on the His tag; apparent rate, corrected to zero dye; monomer to polymer
[23] = target: α1-antitrypsin reactive loop mutant P14P12 (T345D, A347D) on the C232S background (UniProt P01009); assay: FRET or BRET; heat-induced polymerization at 55°C; 0.1 mg/ml protein in 10 mM Na2HPO4/NaH2PO4, 0.1 M NaCl, 0.1% PEG8K, pH 7.4; 2-8 μM ATTO-550-Ni-NTA and ATTO-647N-Ni-NTA on the His tag; apparent rate, corrected to zero dye; monomer to polymer

Substance: recombinant α1-antitrypsin, M allele with the C232S mutation (AT_(C232S)) (from UniProt P01009 26-418) (natural protein)
- SI (stoichiometry of inhibition): residual activity of 0.5 μM bovine α-chymotrypsin after 30 min with inhibitor [1]: 1.1
- kass•SI [2]: 1.5e+06
- kon [2]: 1.5e+06 M⁻¹ s⁻¹
- k (app,fr) (apparent rate of polymerization) [3]: 0.01 s⁻¹
- k (app,fr) (apparent rate of polymerization) [4]: 0.00021 s⁻¹
- k (app,fr) (apparent rate of polymerization) [5]: 0.0016 s⁻¹

Substance: α1-antitrypsin reactive loop mutant P2P1′ (P357D, S359D) on the C232S background (from UniProt P01009 26-418) (natural protein)
- SI (stoichiometry of inhibition): residual activity of 0.5 μM bovine α-chymotrypsin after 30 min with inhibitor [1]: 100
- k (app,fr) (apparent rate of polymerization) [6]: 0.012 s⁻¹
- k (app,fr) (apparent rate of polymerization) [7]: 0.00022 s⁻¹
- k (app,fr) (apparent rate of polymerization) [8]: 0.0017 s⁻¹

Substance: α1-antitrypsin reactive loop mutant P6 (L353D) on the C232S background (from UniProt P01009 26-418) (natural protein)
- k (app,fr) (apparent rate of polymerization) [12]: 0.01 s⁻¹
- k (app,fr) (apparent rate of polymerization) [13]: 3.7e-05 s⁻¹
- k (app,fr) (apparent rate of polymerization) [14]: 0.0007 s⁻¹

Substance: α1-antitrypsin reactive loop mutant P6P4 (L353D, A355D) on the C232S background (from UniProt P01009 26-418) (natural protein)
- SI (stoichiometry of inhibition): residual activity of 0.5 μM bovine α-chymotrypsin after 30 min with inhibitor [1]: 89
- k (app,fr) (apparent rate of polymerization) [15]: 0.0055 s⁻¹
- k (app,fr) (apparent rate of polymerization) [16]: 9.8e-06 s⁻¹
- k (app,fr) (apparent rate of polymerization) [17]: 0.00044 s⁻¹

Substance: α1-antitrypsin reactive loop mutant P10P8 (G349D, M351D) on the C232S background (from UniProt P01009 26-418) (natural protein)
- SI (stoichiometry of inhibition): residual activity of 0.5 μM bovine α-chymotrypsin after 30 min with inhibitor [1]: 4.56
- kass•SI [2]: 570000
- kon [2]: 120000 M⁻¹ s⁻¹
- k (app,fr) (apparent rate of polymerization) [18]: 0.0028 s⁻¹
- k (app,fr) (apparent rate of polymerization) [19]: 7.2e-05 s⁻¹
- k (app,fr) (apparent rate of polymerization) [20]: 0.00066 s⁻¹

More lines, now with the values ahead:

- k (app,fr) (apparent rate of polymerization) [9]: 0.078 s⁻¹
- k (app,fr) (apparent rate of polymerization) [10]: 0.00011 s⁻¹
- k (app,fr) (apparent rate of polymerization) [11]: 0.0011 s⁻¹
Substance: α1-antitrypsin reactive loop mutant P4 (A355D) on the C232S background (from UniProt P01009 26-418) (natural protein)

- k (app,fr) (apparent rate of polymerization) [21]: 0.024 s⁻¹
- k (app,fr) (apparent rate of polymerization) [22]: 5.8e-05 s⁻¹
- k (app,fr) (apparent rate of polymerization) [23]: 0.00043 s⁻¹
Substance: α1-antitrypsin reactive loop mutant P14P12 (T345D, A347D) on the C232S background (from UniProt P01009 26-418) (natural protein)
